Data published in patent US11214614B2, “LTBP complex-specific inhibitors of TGFβ and uses thereof” (Scholar Rock, Inc., priority 2019, dated 2022).
Residue numbers refer to the chain shown, from its start.

B1: SR-AB42: cycle 3 antibody, lineage SR-AB23; CDRs SEQ ID NO: 166-171; HCVR SEQ ID NO: 318, LCVR SEQ ID NO: 319 (antibody, V domains shown)
VH: QVQLVESGGGVVQPGRSLRLSCAASGFTFRSYVMHWVRQAPGKGLEWVAVISHEGSLKYYADSVKGRFTISRDNSKNTLYLQMNSLRAEDTAVYYCARPRIAARRGGFGYWGQGTLVTVSS
VL: NFMLTQPHSVSESPGKTVTISCTRSSGNIDNNYVQWYQQRPGSSPTTVIYEDNQRPSGVPDRFSGSIDSSSNSASLTISGLKTEDEADYYCQSYDYDTQGVVFGGGTKLTVL
B2: SR-AB23: second-round (CDR-H3 mutagenesis) antibody, lineage SR-AB14; CDRs SEQ ID NO: 116-121 (antibody, V domains shown)
VH: B1 VH
VL: B1 VL with Y96S, T98N
B3: SR-AB22: second-round (CDR-H3 mutagenesis) antibody, lineage SR-AB14; CDRs SEQ ID NO: 108-113 (antibody, V domains shown)
VH: B1 VH with R98V
VL: B1 VL with Y96S, T98N
B4: SR-AB63: cycle 3 antibody, lineage SR-AB26; CDRs SEQ ID NO: 292-297; HCVR SEQ ID NO: 360, LCVR SEQ ID NO: 361 (antibody, V domains shown)
VH: QLQLQESGPGLVKPSETLSLTCTVSGGSIRSSSYYWGWIRQPPGKGLEWIGSISYSATTYYNPSLKSRVTISVDTSKNQFSLKLSSVTAADTAVYYCAGDPSYDSIAGMQVWGQGTTVTVSS
VL: DIQLTQSPSSLSASVGDRVTITCRASQSISSYLNWYQQKPGKAPKLLIYAASNLQSGVPSRFSGSGSGTDFTLTISSLQPEDFATYYCQQSFDWPLTFGGGTKVEIK

Assays:
huLTBP1 proTGFβ1 = huLTBP1 proTGFβ1 (Homo sapiens, UniProt P01137+Q14766); experiment: SPR (Biacore 8K) monovalent binding kinetics of Fabs, biotinylated antigen captured; design: biotin (complex biotinylated); conditions: for KD of Fab fragments / Binding of human Fabs for huLTBP1 proTGFβ1 and huLTBP3 proTGFβ1 (FIGS. 23, 24): SPR; for KD of Fab fragments: antigen not given; for Monovalent affinities (FIGS. 23, 24): figure legends
Procedure, shortened: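 Biotinylated proTGFβ1 complexes (10 nM) captured on Biotin CAPture chip; Fabs injected at 10, 5, 2.5, 1.25, 0.625 nM (0 nM reference), 120 s contact, 900 s dissociation, multi-cycle with regeneration. HBS-EP+ pH 7.4; global 1:1 fit for ka, kd, KD.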

[1] = test system: phosphorylation of Smad2/3 in kidney of Col4a3−/− mice; experiment: Alport (Col4a3−/−) mouse model, pSMAD2/3 ELISA on whole kidney lysates; assay type: in vivo; conditions: single dose 30 mg/kg i.p., 48 hours prior to sacrifice, 11 week old Col4a3−/− mice
Source text: The murine Col4a3 −/− model is an established genetic model of autosomal recessive Alport syndrome. Alport mice lack a functional collagen 4A3 gene (Col4A3−/−) and therefore cannot form normal type IV collagen trimers, which require a3, a4, and a5 chains. Col4a3−/− mice develop fibrosis in the kidney consistent with renal fibrosis in human patients, including interstitial fibrosis and tubular atrophy, and Col4a3−/− mice develop end-stage renal disease (ESRD) between 8 and 30 weeks of age, depending on the genetic background of the mouse. The structural and functional manifestation of renal pathology in Col4a3−/− mice, combined with the progression to ESRD make Col4a3−/− mice an ideal model to understand kidney fibrosis. […]
It is well documented that TGFβ receptor activation leads to a downstream signaling cascade of intracellular events, including phosphorylation of Smad2/3. Therefore, the ability of SR-AB42 and SR-AB63 treatment to inhibit TGFβ signaling was assessed in kidney lysate samples by measuring relative phosphorylation levels of Smad2/3 as assayed by ELISA (Cell Signaling Technologies) according to the manufacturer's instructions. […] FIG. 20B is a graph showing the amount of phosphorylated SMAD2/3 (pSMAD2/3) as determined by ELISA and FIG. 20C is a graph showing the amount of total […] (tSMAD2/3) protein as determined by ELISA.

[2] = test system: proTGFβ1 presented by endogenous LTBP1/3 in LN229 cells; experiment: Endogenous LTBP caga assay: LN229 cells transfected with human proTGFβ1 only, CAGA12 luciferase reporter cells; assay type: cell-based; conditions: endogenous presenting molecules
proTGFβ1 presented by endogenous LTBP1/3 in LN229 cells, sequence (P01137 30-390): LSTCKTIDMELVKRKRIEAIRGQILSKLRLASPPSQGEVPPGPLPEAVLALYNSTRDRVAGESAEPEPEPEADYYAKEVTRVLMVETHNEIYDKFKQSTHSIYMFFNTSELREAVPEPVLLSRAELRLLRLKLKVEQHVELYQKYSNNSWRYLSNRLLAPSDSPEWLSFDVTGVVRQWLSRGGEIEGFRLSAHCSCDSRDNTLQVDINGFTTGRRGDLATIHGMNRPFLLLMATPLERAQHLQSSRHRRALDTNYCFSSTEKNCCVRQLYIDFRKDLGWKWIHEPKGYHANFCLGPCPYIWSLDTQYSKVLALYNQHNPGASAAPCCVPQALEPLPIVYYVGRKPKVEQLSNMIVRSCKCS

huLTBP1 proTGFβ1, sequence (P01137 30-390): as above
huLTBP1 proTGFβ1, sequence (Q14766 347-1721 limits assumed): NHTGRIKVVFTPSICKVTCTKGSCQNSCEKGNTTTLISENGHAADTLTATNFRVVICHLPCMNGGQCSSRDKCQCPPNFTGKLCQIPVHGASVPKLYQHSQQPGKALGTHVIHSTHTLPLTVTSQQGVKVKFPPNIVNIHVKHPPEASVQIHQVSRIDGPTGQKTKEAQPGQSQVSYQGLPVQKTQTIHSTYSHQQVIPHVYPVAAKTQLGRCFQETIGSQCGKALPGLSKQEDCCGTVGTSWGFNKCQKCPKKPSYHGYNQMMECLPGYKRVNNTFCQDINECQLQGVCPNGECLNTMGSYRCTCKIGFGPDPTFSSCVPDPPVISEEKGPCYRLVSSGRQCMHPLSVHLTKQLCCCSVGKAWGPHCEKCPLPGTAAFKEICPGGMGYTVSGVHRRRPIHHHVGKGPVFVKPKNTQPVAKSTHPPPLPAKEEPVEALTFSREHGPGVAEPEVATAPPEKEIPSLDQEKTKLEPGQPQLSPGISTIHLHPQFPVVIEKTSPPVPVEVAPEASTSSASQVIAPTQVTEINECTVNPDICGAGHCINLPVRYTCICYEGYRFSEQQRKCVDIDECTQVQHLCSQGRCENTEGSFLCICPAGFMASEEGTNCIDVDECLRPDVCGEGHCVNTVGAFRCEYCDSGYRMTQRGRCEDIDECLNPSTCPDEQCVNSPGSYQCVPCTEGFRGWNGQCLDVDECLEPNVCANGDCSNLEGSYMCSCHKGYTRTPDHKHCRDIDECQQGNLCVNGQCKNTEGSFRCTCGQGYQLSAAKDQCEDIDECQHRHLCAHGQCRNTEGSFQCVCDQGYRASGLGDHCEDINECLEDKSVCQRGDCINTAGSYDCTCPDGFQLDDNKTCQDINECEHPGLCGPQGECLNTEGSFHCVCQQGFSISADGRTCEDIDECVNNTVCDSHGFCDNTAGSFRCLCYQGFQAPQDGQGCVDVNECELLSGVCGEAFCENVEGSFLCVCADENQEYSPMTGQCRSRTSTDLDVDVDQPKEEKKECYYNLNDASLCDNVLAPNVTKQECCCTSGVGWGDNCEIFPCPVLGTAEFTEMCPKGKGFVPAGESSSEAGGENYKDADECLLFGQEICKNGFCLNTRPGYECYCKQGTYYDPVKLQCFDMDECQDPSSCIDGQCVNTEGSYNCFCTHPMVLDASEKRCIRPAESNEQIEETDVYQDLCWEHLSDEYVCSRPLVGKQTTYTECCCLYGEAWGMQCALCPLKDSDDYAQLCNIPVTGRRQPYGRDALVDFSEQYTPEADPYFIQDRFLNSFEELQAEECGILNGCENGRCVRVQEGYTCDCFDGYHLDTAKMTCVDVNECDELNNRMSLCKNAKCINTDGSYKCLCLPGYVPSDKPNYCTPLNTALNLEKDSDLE

| Molecule | KD of Fab fragments (huLTBP1 proTGFβ1) | Binding of human Fabs for huLTBP1 proTGFβ1 and huLTBP3 proTGFβ1 (FIGS. 23, 24) (huLTBP1 proTGFβ1) | Monovalent affinities (FIGS. 23, 24) (huLTBP1 proTGFβ1) | pSmad2/3 signaling (pSMAD2/3:tSMAD2/3) in whole kidney lysates [1] | Inhibition of TGFβ1 activation (TGFβ activity, luciferase) [2] |
| --- | --- | --- | --- | --- | --- |
| B1 | sub-nanomolar | context-selective binding | picomolar monovalent affinities | significantly inhibit pSmad2/3 signaling |  |
| B2 |  |  |  |  | improved potency |
| B3 |  |  |  |  | improved potency |
| B4 | sub-nanomolar | context-selective binding | picomolar monovalent affinities | significantly inhibit pSmad2/3 signaling |  |
